Results from patent US7094873 (University of Texas, dated 2006).

What was measured:
[1] = biological target: SV40 large T antigen (negative control protein, Clontech) (SV40, UniProt P03070 84-708); test: yeast two-hybrid
[2] = biological target: T1, Fragments of Hsc70 in frame with the GAL4 activation domain (five prey clones, human heart cDNA library in … (human, UniProt P11142 394-646, limits assumed)); test: yeast two-hybrid
T1 construct: domain: carboxyl terminus

[3] = biological target: T2, Fragments of Hsp70 in frame with the GAL4 activation domain (three prey clones, human heart cDNA library in … (human, UniProt P0DMV8 417-641, limits assumed)); test: yeast two-hybrid
T2 construct: domain: carboxyl terminus; Three clones treated as one molecule

[4] = biological target: T3, Human Hsp70 (Stressgen) (human, UniProt P0DMV8 1-641); test: GST-hCHIP fragments, in vitro binding assay, immunoblot
[5] = biological target: T4, Bovine Hsc70 (Stressgen) (bovine, UniProt P19120 2-650); test: as above
T4 construct: also called purified Hsc70

[6] = biological target: T3, Human Hsp70 (Stressgen); test: cell-based or functional assay
[7] = biological target: T5, GST-Hsc70 (amino acid residues 1-540) (UniProt P11142 1-540); test: GST-Hsc70 deletion mutants on beads with 35S-labeled hCHIP, autoradiography
T5 construct: range 1-540; From E. Ungewickell; also called pGEXHsc70 (1-540); not shown: glutathione S-transferase (GST) of a pGEX vector

[8] = biological target: T6, Human Hsp40 (Stressgen) (human, UniProt P25685 1-340); test: GST pulldown on glutathione-Sepharose beads, immunoblot
T6 construct: also called co-chaperone Hsp40
T6 sequence (P25685 whole entry): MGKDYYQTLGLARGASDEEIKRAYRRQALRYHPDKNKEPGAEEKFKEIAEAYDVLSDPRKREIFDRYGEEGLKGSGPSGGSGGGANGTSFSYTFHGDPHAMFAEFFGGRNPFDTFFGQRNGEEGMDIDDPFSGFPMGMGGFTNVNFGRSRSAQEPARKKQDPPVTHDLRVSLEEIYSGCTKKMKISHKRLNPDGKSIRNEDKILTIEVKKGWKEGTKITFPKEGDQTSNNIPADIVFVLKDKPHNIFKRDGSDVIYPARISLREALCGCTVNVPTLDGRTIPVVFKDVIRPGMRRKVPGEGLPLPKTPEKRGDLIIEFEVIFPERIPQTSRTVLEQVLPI

T3 sequence (P0DMV8 whole entry, the tested form may be a part): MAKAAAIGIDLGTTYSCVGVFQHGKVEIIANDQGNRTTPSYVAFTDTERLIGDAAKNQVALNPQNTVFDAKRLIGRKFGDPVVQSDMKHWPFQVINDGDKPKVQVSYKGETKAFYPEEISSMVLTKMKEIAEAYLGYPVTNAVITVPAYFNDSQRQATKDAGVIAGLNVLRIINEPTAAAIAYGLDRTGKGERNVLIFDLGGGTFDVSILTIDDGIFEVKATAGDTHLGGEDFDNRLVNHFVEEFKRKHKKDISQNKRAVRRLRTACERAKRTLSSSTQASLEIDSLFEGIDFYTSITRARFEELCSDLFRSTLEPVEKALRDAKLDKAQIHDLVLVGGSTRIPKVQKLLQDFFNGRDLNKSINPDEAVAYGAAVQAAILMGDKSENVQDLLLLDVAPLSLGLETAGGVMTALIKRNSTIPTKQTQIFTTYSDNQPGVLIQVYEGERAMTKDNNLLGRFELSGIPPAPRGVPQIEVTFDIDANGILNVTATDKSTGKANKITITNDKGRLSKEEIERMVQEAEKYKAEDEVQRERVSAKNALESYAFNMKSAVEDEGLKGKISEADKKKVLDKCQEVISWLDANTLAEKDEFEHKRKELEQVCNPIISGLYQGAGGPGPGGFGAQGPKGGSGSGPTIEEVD
T4 sequence (P19120 2-650 limits assumed): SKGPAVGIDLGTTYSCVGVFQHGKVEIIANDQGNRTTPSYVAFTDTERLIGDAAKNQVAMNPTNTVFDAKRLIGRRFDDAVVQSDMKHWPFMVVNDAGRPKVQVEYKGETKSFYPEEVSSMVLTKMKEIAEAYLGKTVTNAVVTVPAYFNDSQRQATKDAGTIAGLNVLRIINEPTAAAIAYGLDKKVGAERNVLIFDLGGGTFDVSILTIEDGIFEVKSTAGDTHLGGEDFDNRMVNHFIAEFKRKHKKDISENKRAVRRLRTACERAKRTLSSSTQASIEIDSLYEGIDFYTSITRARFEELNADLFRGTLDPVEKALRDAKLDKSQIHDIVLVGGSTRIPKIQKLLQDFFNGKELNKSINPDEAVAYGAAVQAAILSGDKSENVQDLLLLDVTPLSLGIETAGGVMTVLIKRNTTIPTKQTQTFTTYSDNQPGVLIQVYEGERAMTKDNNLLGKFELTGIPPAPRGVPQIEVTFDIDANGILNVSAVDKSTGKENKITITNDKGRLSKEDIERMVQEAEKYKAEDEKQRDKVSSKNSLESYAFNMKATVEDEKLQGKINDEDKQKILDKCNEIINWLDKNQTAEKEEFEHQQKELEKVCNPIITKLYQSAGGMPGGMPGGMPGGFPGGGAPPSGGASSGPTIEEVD
Sequence of SV40 large T antigen (negative control protein, Clontech) (P03070 84-708 limits assumed): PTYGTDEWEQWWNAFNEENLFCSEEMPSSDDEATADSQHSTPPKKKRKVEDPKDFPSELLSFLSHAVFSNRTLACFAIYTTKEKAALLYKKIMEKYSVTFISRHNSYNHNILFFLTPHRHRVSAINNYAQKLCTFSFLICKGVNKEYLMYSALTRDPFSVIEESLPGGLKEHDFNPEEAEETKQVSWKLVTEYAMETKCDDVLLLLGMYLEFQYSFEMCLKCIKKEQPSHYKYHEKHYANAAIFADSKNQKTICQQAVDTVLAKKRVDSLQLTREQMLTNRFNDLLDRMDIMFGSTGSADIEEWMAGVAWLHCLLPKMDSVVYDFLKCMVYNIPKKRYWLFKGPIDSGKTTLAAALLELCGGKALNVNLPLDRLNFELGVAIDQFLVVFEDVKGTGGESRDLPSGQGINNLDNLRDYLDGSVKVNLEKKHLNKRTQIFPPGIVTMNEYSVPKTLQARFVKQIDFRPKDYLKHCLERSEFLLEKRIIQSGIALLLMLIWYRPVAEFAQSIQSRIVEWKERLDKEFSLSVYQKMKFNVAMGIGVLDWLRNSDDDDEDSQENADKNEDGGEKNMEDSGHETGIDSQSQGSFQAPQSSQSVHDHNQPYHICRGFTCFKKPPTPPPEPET
T1 sequence (P11142 394-646 limits assumed): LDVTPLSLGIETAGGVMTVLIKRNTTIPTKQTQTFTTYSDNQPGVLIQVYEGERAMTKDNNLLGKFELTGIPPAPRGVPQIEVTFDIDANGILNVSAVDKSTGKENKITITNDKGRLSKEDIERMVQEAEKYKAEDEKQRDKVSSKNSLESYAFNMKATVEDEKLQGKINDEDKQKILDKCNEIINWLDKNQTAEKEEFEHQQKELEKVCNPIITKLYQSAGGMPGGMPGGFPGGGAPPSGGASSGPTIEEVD
T5 sequence (P11142 1-540): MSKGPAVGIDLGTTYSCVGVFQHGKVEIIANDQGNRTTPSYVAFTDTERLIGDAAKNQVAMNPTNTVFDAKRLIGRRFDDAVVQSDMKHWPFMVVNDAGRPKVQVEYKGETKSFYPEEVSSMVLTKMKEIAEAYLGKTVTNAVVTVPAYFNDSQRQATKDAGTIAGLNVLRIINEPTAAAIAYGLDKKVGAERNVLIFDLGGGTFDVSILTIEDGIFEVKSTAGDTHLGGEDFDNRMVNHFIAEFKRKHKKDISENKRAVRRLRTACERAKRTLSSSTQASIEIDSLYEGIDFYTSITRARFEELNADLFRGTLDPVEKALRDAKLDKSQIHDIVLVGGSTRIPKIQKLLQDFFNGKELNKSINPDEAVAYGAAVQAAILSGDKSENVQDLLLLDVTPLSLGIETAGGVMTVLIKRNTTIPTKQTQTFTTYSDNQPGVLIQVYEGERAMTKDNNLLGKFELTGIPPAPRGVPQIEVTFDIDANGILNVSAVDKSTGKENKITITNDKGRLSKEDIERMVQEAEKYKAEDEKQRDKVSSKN
T2 sequence (P0DMV8 417-641 limits assumed): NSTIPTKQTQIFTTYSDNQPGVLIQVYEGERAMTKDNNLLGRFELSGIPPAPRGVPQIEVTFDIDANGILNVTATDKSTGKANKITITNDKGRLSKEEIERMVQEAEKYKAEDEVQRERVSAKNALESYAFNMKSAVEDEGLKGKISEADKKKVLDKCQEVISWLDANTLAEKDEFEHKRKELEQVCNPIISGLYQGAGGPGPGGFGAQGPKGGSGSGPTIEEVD

B1: Full-length hCHIP fused to the GAL4 DNA-binding domain (bait, plasmid pAS2-1) (other)
chain: MKLLSSIEQACDICRLKKLKCSKEKPKCAKCLKNNWECRYSPKTKRSPLTRAHLTEVESRLERLEQLFLLIFPREDLDMILKMDSLQDIKALLTGLFVQDNVNKDAVTDRLASVETDMPLTLRQHRISATSSSEESSNKGQRQLTVSMKGKEEKEGGARLGAGGGSPEKSPSAQELKEQGNRLFVGRKYPEAAACYGRVITRNPLVAVYYTNRALCYLKMQQHEQALADCRRALELDGQSVKAHFFLGQCQLEMESYDEAIANLQRAYSLAKEQRLNFGDDIPSALRIAKKKRWNSIEERRIHQESELHSYLSRLIAAERERELEECQRNHEGDEDDSHVRAQQACIEAKHDKYMADMDELFSQVDEKRKKRDIPDYLCGKISFELMREPCITPSGITYDRKDIEEHLQRVGHFDPVTRSPLTQEQLIPNLAMKEVIDAFISENGWVEDY
notes: Expressed in yeast strain CG-1945
**Q.** Does B1 bind [1]?
**A.** Result: no binding

B2: lamin C (negative control, yeast two-hybrid) (other, UniProt P02545-2 66-230, looked up)
chain: SEEVVSREVSGIKAAYEAELGDARKTLDSVAKERARLQLELSKVREEFKELKARNTKKEGDLIAAQARLKDLEALLNSKEAALSTALSEKRTLEGELHDLRGQVAKLEAALGEAKKQLQDEMLRRVDAENRLQTMKEELDFQKNIYSEELRETKRRHETRLVEID
**Q.** Does B2 bind [2]?
**A.** Result: no binding

**Q.** Does B2 bind [3]?
**A.** Result: no binding

B3: GST-hCHIP fusion protein (amino acid residues 1-142) (other)
chain: MKGKEEKEGGARLGAGGGSPEKSPSAQELKEQGNRLFVGRKYPEAAACYGRVITRNPLVAVYYTNRALCYLKMQQHEQALADCRRALELDGQSVKAHFFLGQCQLEMESYDEAIANLQRAYSLAKEQRLNFGDDIPSALRIA
notes: Contains the three TPR domains; also called GST construct 2; not shown: glutathione S-transferase (GST) encoded by vector pGEX KG
**Q.** Does B3 bind [4]?
**A.** Result: no binding

**Q.** Does B3 bind [5]?
**A.** Result: no binding

B4: Recombinant hCHIP (His-tagged fusion from plasmid pET-hCHIP, expressed in E. coli BL21) (other, not shown: small tags and cut ends)
chain: MKGKEEKEGGARLGAGGGSPEKSPSAQELKEQGNRLFVGRKYPEAAACYGRVITRNPLVAVYYTNRALCYLKMQQHEQALADCRRALELDGQSVKAHFFLGQCQLEMESYDEAIANLQRAYSLAKEQRLNFGDDIPSALRIAKKKRWNSIEERRIHQESELHSYLSRLIAAERERELEECQRNHEGDEDDSHVRAQQACIEAKHDKYMADMDELFSQVDEKRKKRDIPDYLCGKISFELMREPCITPSGITYDRKDIEEHLQRVGHFDPVTRSPLTQEQLIPNLAMKEVIDAFISENGWVEDY
**Q.** B4 was tested. Which “luciferase refolding: decrease of the folding activity of Hsp70” value [6] did it give?
**A.** Its value is 65%.

**Q.** What about the “luciferase refolding: decrease of the folding activity of Hsp70/Hsp40” value [6] of the same binder?
**A.** The value was 64%.

B5: 35S-labeled, in vitro translated hCHIP (43-kD S-tagged fusion from vector pCITE-4a) (other)
chain: MKGKEEKEGGARLGAGGGSPEKSPSAQELKEQGNRLFVGRKYPEAAACYGRVITRNPLVAVYYTNRALCYLKMQQHEQALADCRRALELDGQSVKAHFFLGQCQLEMESYDEAIANLQRAYSLAKEQRLNFGDDIPSALRIAKKKRWNSIEERRIHQESELHSYLSRLIAAERERELEECQRNHEGDEDDSHVRAQQACIEAKHDKYMADMDELFSQVDEKRKKRDIPDYLCGKISFELMREPCITPSGITYDRKDIEEHLQRVGHFDPVTRSPLTQEQLIPNLAMKEVIDAFISENGWVEDY
modifications: 35S-methionine labeled
notes: Made in rabbit reticulocyte lysate; not shown: S-tag and vector-encoded residues of pCITE-4a
**Q.** Does B5 bind [7]?
**A.** Result: no binding

B6: GST-hCHIP fusion protein (amino acid residues 1-303) (other)
chain: MKGKEEKEGGARLGAGGGSPEKSPSAQELKEQGNRLFVGRKYPEAAACYGRVITRNPLVAVYYTNRALCYLKMQQHEQALADCRRALELDGQSVKAHFFLGQCQLEMESYDEAIANLQRAYSLAKEQRLNFGDDIPSALRIAKKKRWNSIEERRIHQESELHSYLSRLIAAERERELEECQRNHEGDEDDSHVRAQQACIEAKHDKYMADMDELFSQVDEKRKKRDIPDYLCGKISFELMREPCITPSGITYDRKDIEEHLQRVGHFDPVTRSPLTQEQLIPNLAMKEVIDAFISENGWVEDY
notes: also called GST-CHIP; not shown: glutathione S-transferase (GST) encoded by vector pGEX KG
**Q.** Does B6 bind [5]?
**A.** Result: binds

**Q.** Does B6 bind [8]?
**A.** Result: no binding

B7: GST-hCHIP fusion protein (amino acid residues 1-197) (other)
chain: MKGKEEKEGGARLGAGGGSPEKSPSAQELKEQGNRLFVGRKYPEAAACYGRVITRNPLVAVYYTNRALCYLKMQQHEQALADCRRALELDGQSVKAHFFLGQCQLEMESYDEAIANLQRAYSLAKEQRLNFGDDIPSALRIAKKKRWNSIEERRIHQESELHSYLSRLIAAERERELEECQRNHEGDEDDSHVRAQQ
notes: TPR domains plus the adjacent charged domain; also called GST construct 4; not shown: glutathione S-transferase (GST) encoded by vector pGEX KG
**Q.** Which results are given for B7?
**A.** binding result [4]: binds; binding result [5]: binds
